Data published in patent publication US20210171647A1 (WUXI BIOLOGICS SHANGHAI, published 2021).

Key:
Test in all cases: ELISA, antibody coated, OX40-ECD.His mutant supernatant; relative to silent alanine substitutions;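 further: captured OX40 mutant protein detected with HRP-labelled anti-His antibody, absorbance read-out, scaled to the mean signal of control mutants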
human OX40-ECD.His F71A = target: T1, human OX40-ECD.His F71A (human, UniProt P43489 29-214)
T1 construct: extracellular domain; not shown: C-terminal His-tag
T1 sequence (looked up): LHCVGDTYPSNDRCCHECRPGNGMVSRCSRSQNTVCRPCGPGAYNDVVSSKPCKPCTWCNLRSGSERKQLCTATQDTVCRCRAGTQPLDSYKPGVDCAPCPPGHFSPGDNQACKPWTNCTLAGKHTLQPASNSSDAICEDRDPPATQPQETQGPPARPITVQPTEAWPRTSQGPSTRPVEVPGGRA

human OX40-ECD.His P80A = target: T2, human OX40-ECD.His P80A (human, UniProt P43489 29-214)
T2 construct: extracellular domain; not shown: C-terminal His-tag
T2 sequence (looked up): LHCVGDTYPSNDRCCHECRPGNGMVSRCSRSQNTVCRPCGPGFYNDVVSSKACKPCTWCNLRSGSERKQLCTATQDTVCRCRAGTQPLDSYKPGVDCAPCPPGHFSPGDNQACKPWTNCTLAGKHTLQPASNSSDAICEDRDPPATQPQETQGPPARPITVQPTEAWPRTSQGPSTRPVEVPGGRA

human OX40-ECD.His K82A = target: T3, human OX40-ECD.His K82A (human, UniProt P43489 29-214)
T3 construct: extracellular domain; not shown: C-terminal His-tag
T3 sequence (looked up): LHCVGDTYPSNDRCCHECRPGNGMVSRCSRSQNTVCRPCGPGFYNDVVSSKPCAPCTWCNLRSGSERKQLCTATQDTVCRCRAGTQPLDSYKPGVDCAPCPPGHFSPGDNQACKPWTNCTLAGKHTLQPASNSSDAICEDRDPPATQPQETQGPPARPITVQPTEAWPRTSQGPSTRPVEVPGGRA

human OX40-ECD.His P130A = target: T4, human OX40-ECD.His P130A (human, UniProt P43489 29-214)
T4 construct: extracellular domain; not shown: C-terminal His-tag
T4 sequence (looked up): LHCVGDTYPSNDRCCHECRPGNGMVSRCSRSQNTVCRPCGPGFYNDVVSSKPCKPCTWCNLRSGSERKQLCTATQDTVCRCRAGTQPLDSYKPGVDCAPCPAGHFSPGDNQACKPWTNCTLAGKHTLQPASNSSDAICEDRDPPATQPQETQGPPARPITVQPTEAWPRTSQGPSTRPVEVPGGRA

human OX40-ECD.His K152A = target: T5, human OX40-ECD.His K152A (human, UniProt P43489 29-214)
T5 construct: extracellular domain; not shown: C-terminal His-tag
T5 sequence (looked up): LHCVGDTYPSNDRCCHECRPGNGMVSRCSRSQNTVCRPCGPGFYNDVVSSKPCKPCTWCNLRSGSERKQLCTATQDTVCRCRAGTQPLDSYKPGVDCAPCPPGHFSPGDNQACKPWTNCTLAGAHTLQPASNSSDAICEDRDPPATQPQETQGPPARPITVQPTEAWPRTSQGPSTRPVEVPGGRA

human OX40-ECD.His P172A = target: T6, human OX40-ECD.His P172A (human, UniProt P43489 29-214)
T6 construct: extracellular domain; not shown: C-terminal His-tag
T6 sequence (looked up): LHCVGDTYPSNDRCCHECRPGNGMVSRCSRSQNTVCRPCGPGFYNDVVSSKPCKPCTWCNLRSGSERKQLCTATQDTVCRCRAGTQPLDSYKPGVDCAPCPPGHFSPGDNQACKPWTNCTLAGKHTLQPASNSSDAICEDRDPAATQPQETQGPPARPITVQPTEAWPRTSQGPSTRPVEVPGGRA

human OX40-ECD.His N50A = target: T7, human OX40-ECD.His N50A (human, UniProt P43489 29-214)
T7 construct: extracellular domain; not shown: C-terminal His-tag
T7 sequence (looked up): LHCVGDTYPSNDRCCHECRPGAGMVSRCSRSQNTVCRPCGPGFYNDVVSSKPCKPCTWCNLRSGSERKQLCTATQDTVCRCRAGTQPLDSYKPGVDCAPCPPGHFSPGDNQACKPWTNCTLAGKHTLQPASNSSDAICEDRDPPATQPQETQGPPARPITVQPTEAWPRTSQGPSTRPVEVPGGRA

human OX40-ECD.His E94A = target: T8, human OX40-ECD.His E94A (human, UniProt P43489 29-214)
T8 construct: extracellular domain; not shown: C-terminal His-tag
T8 sequence (looked up): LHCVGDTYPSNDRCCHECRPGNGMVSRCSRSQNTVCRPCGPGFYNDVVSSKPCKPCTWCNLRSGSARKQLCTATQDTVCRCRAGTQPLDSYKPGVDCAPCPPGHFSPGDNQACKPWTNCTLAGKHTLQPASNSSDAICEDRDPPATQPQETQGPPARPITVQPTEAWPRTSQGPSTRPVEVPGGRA

human OX40-ECD.His N61A = target: T9, human OX40-ECD.His N61A (human, UniProt P43489 29-214)
T9 construct: extracellular domain; not shown: C-terminal His-tag
T9 sequence (looked up): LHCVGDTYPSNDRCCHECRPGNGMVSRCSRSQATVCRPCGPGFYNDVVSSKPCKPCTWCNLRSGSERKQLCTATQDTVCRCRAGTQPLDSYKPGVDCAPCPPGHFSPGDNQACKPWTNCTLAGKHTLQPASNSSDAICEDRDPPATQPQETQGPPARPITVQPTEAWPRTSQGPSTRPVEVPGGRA

human OX40-ECD.His A173G = target: T10, human OX40-ECD.His A173G (human, UniProt P43489 29-214)
T10 construct: extracellular domain; not shown: C-terminal His-tag
T10 sequence (looked up): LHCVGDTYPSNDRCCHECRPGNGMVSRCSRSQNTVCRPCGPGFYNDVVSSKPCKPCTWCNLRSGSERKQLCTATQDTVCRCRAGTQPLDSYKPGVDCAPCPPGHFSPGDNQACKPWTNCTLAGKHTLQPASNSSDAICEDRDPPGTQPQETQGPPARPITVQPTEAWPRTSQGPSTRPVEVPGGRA

Fold Change (human OX40-ECD.His F71A): 0.866
Fold Change (human OX40-ECD.His P80A): 0.944
Fold Change (human OX40-ECD.His K82A): 0.894
Fold Change (human OX40-ECD.His P130A): 1.01
Fold Change (human OX40-ECD.His K152A): 0.81
Fold Change (human OX40-ECD.His P172A): 1.02
Fold Change (human OX40-ECD.His N50A): 0.961
Fold Change (human OX40-ECD.His E94A): 0.716
Fold Change (human OX40-ECD.His N61A): 0.99
Fold Change (human OX40-ECD.His A173G): 0.993
B1: 1.134.9-u1-IgG1L (antibody, V domains shown)
VH: QVQLQESGPGLVKPSGTLSLTCAVSGGSISSYNWWSWVRQPPGKGLEWIGEIYHGGNTNYNPSLKSRVTMSVDNSKNQFSLKLSSVTAADTAVYYCARAPGDWGGSPYFDFWGQGTLVTVSS
VL: SSELTQDPAVSVALGQTVRITCQGDNLRTYYASWYQQKPGQAPILLIYGRNKRPSGIPDRFSGSSSGNTASLTITGAQAEDEAAYYCNSRDSSGNPVVFGGGTKLTVL
notes: fully human IgG1, lambda
